Reference: US20190307868A1 (published 2019)

Molecular target: HLA-B08:01 (human)
Experiment: peptide-MHC-I complex dissociation half-life, 125I-b2m, 37 C
Procedure: Briefly, synthetic genes encoding biotinylated MHC-I heavy and light chains are expressed in E. coli and purified from inclusion bodies using standard methods. The light chain (β2m) is radio-labeled with iodine (¹²⁵I), and combined with the purified MHC-I heavy chain and peptide of interest at 18° C. to initiate pMHC-I complex formation. These reactions are carried out in streptavidin coated microplates to bind th biotinylated MHC-I heavy chains to the surface and allow measurement of radiolabeled light chain to monitor complex formation. Dissociation is initiated by addition of higher concentrations of unlabeled light-chain and incubation at 37° C. Stability is defined as the length of time in hours it takes for half of the complexes to dissociate, as measured by scintillation counts

QVYRRKHQEL [QVYRRKHQEL (EML4:ALK)]
Stability (T1/2 (h)): 0 h
